In general, stoichiometry N refers to the number of molecules, sites or subunits per partner or assembly.

The text below walks through data of article PMC9723800, “Structural and dynamic basis of DNA capture and translocation by mitochondrial Twinkle helicase” (Nucleic Acids Research, 2022).

Several values for one entry are separate records, joined by “and”; a condition that tells them apart may be missing. Identical values can stand only once.

Data set [1] concerns the target T1, LcTwinkle (Lates calcarifer, UniProt A0A4W6C5C5, E452Q).
T1 construct: gene TWNK; shorter variant (primase-like NTD + helicase CTD), synthesized gene, modified pET28a, N-terminal His tag cut by PreScission; E. coli BL21(DE3); homo-hexamer (also heptamer)
T1 sequence (A0A4W6C5C5 128-683 E452Q): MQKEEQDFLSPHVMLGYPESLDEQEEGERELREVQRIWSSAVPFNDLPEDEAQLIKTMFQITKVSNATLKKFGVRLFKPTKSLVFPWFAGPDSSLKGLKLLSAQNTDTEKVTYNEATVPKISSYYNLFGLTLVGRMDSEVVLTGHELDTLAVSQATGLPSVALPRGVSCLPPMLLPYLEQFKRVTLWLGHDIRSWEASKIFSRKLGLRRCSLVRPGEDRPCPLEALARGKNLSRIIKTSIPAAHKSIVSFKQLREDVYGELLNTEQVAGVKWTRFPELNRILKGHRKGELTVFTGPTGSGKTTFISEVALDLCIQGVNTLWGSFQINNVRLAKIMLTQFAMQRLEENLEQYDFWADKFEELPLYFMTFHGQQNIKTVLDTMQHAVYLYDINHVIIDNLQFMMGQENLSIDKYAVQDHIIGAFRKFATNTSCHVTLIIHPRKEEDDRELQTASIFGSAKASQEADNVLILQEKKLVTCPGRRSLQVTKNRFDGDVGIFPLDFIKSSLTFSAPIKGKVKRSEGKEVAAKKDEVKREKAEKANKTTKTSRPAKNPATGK
In words: cryo-EM structure of LcTwinkle-ssDNA-ATP complex, […] Å. It counts as binding. The conditions noted are these: 1 mM ATP, 2 mM MgCl2, pH 8.0, five ATP at the subunit interfaces, one Mg2+ each.

The target in data set [2] is T2, LcTwinkle (Lates calcarifer, UniProt A0A4W6C5C5).
T2 construct: gene TWNK; shorter variant (primase-like NTD + helicase CTD), synthesized gene, modified pET28a, N-terminal His tag cut by PreScission; E. coli BL21(DE3); homo-hexamer (also heptamer)
T2 sequence (A0A4W6C5C5 128-683): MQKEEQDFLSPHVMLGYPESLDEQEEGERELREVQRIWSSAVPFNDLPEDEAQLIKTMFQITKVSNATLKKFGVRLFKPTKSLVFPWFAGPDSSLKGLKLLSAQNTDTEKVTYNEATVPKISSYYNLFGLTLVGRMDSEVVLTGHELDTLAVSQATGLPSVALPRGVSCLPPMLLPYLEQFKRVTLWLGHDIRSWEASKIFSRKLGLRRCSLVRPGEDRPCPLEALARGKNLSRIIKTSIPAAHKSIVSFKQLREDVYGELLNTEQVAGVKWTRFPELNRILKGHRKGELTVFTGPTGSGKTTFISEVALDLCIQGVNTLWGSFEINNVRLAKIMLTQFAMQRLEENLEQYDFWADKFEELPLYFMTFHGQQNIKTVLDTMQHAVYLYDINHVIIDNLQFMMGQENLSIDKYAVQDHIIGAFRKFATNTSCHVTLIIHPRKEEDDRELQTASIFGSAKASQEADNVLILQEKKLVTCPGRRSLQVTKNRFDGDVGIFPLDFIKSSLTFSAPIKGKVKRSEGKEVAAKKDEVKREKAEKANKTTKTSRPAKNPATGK
In words: [gamma-32P]ATP TLC ATPase assay, Michaelis-Menten fit. It counts as biochemical. The conditions noted are these: 12 mM MgCl2, 1 uM ssDNA, 150 mM KCl, pH 8.0, 20 °C; labelled compound as tracer.

The target in data set [3] is E325Q LcTwinkle (Lates calcarifer Twinkle helicase, active site mutant) (Lates calcarifer). As to the kind of experiment: cryo-EM structure; apo (DNA-free) classes found by 3D classification in the same sample prepared with ssDNA and ATP: LcTwinkle6 and LcTwinkle7 (8.5 A).
The target is the same in data set [4]. In words: cryo-EM structure; E325Q LcTwinkle with ssDNA (1:1.5), 1 mM ATP, 2 mM MgCl2, 50 mM Tris pH 8.0, 150 mM KCl, 3 mM DTT; DNA-bound classes (LcTwinkle-DNA 3.5 A, LcTwinkle-DNA2 7.5 A).
The target of data set [5] is WT LcTwinkle (Lates calcarifer Twinkle helicase) (Lates calcarifer). In words: negative staining EM; 0.02 mg/ml Twinkle in 50 mM Tris pH 8.0, 150 mM KCl, 3 mM DTT, 1 mM ATP, 2 mM MgCl2, ssDNA at 1:2 relative to hexamers; uranyl acetate; 2D classification.
In a further data set the target is T3, LcTwinkle R489A (Lates calcarifer, UniProt A0A4W6C5C5 128-683, R616A).
T3 sequence: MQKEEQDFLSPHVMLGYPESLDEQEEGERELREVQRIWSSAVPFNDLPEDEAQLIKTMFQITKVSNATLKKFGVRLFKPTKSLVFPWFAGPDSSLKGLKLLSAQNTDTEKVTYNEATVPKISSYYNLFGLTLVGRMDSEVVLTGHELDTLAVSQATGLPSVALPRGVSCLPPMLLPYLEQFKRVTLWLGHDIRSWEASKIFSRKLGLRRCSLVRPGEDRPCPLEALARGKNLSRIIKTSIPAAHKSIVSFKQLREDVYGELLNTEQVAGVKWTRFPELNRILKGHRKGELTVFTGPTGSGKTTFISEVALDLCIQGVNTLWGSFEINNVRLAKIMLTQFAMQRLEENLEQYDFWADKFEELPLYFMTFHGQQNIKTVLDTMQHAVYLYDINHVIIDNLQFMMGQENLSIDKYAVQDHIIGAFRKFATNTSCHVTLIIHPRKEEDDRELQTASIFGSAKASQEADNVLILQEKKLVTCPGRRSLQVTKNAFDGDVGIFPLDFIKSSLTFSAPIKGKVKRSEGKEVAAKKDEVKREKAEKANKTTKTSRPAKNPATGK
As to the kind of experiment: fluorescence anisotropy; 0.5 mM ATP, 1 mM Mg2+; FA: 25 mM Tris-HCl pH 8.0, 150 mM KCl, 0.5 mM ATP, 1 mM MgCl2, 20 nM Cy5-ssDNA, temperature not stated; SEC/cryo-EM: 50 mM Tris pH 8.0, 150 mM KCl, 3 mM DTT, 1. The settings on record: protein: recombinant; tags: N-terminal His tag, PreScission-cleaved; chain copies: 6; label: 5'-Cy5; single strand. On the technique in general: Polarisation of emitted light reports the rotation of a fluorescent probe.

The target of the next data set is T4, LcTwinkle H438A (Lates calcarifer, UniProt A0A4W6C5C5 128-683, H565A).
T4 sequence: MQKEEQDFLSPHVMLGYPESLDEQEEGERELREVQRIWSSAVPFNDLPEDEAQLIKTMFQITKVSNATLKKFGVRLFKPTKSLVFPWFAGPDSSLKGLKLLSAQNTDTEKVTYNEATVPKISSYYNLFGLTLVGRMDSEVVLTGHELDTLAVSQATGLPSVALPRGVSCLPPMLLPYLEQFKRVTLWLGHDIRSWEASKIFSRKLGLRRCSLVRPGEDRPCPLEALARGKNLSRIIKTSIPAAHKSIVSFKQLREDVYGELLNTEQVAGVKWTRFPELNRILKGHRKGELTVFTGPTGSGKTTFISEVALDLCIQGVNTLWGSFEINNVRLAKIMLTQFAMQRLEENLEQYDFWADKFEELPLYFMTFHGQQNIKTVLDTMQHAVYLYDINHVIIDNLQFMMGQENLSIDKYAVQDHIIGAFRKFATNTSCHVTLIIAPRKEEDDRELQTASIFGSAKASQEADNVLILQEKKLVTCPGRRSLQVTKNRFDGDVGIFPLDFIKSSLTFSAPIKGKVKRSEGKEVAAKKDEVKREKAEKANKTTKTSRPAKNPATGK
The description is as above. The conditions noted are these: protein: recombinant; tags: N-terminal His tag, PreScission-cleaved; chain copies: 6; label: 5'-Cy5; single strand.

Another data set deals with T5, LcTwinkle R440A (Lates calcarifer, UniProt A0A4W6C5C5 128-683, R567A).
T5 sequence: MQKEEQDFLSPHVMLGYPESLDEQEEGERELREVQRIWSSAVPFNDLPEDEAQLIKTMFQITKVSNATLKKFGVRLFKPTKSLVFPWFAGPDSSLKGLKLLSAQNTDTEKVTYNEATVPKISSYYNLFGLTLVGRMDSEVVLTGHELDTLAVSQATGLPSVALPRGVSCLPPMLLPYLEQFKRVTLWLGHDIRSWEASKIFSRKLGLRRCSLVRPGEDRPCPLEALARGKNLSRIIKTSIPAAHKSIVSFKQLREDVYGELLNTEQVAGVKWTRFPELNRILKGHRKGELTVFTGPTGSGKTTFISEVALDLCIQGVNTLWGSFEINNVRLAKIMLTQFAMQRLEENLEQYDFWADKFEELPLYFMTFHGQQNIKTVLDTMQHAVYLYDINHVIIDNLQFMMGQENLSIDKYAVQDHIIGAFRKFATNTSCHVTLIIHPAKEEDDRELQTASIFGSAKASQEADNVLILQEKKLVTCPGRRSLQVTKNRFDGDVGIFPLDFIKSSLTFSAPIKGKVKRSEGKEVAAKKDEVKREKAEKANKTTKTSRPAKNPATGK
The description is as above. The settings on record: protein: recombinant; tags: N-terminal His tag, PreScission-cleaved; chain copies: 6; label: 5'-Cy5; single strand.

A further data set addresses T6, LcTwinkle S456A (Lates calcarifer, UniProt A0A4W6C5C5 128-683, S583A).
T6 sequence: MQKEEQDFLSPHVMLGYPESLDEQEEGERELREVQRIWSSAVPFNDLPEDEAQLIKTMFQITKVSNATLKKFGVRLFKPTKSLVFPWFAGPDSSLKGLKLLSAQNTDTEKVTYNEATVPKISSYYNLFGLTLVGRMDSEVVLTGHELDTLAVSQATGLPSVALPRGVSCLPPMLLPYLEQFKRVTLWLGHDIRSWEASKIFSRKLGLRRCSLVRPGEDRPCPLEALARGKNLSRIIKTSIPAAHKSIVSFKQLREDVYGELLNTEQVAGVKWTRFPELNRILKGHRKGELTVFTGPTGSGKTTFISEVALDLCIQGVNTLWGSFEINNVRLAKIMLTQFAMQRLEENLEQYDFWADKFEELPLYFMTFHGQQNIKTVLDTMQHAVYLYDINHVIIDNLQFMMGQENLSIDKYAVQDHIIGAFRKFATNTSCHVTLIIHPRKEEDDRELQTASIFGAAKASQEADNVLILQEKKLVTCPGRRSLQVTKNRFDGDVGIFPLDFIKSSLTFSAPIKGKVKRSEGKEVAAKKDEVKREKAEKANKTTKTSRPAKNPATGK
The description is as above. The conditions noted are these: protein: recombinant; tags: N-terminal His tag, PreScission-cleaved; chain copies: 6; label: 5'-Cy5; single strand.

The target in the next data set is T7, LcTwinkle E325Q (Lates calcarifer, UniProt A0A4W6C5C5 128-683, E452Q).
T7 sequence: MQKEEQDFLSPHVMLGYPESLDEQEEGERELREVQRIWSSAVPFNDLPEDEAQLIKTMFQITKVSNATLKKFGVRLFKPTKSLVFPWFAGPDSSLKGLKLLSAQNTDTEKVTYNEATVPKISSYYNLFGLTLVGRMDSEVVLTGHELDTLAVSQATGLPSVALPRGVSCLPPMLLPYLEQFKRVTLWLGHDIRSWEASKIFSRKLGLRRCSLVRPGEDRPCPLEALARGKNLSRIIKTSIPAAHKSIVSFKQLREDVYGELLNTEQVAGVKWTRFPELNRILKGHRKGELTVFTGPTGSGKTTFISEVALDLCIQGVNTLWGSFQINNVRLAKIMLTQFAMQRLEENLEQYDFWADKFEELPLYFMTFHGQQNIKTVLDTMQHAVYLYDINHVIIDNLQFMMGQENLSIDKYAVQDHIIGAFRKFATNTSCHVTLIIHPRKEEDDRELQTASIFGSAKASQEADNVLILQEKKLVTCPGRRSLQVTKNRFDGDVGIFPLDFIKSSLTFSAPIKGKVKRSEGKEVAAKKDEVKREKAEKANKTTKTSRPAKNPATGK
As to the kind of experiment: cryo-EM structure (3.5 A); 1 mM ATP, 2 mM Mg2+; FA: 25 mM Tris-HCl pH 8.0, 150 mM KCl, 0.5 mM ATP, 1 mM MgCl2, 20 nM Cy5-ssDNA, temperature not stated; SEC/cryo-EM: 50 mM Tris pH 8.0, 150 mM KCl, 3 mM DTT, 1. The conditions noted are these: protein: recombinant; tags: N-terminal His tag, PreScission-cleaved; chain copies: 6; single strand.

`Nc1ncnc2c1ncn2[C@@H]1O[C@H](COP(=O)(O)OP(=O)(O)OP(=O)(O)O)[C@@H](O)[C@H]1O` [ATP]: the “cryo-EM structure of LcTwinkle-ssDNA-ATP complex, 3.5 Å” value at LcTwinkle [1] was “ATPase sites are located at each of the subunit interfaces (Figure 2A), and five ATP molecules”. Also, at LcTwinkle [2], the KM result was “The data were fitted to Michaelis–Menten equation with GraphPad”.

Turning to “E325Q LcTwinkle (Lates calcarifer Twinkle helicase, active site mutant) (enzyme)”, the stoichiometry N in data set [3] was 6 and 7; in [4] it was 6.

For “WT LcTwinkle (Lates calcarifer Twinkle helicase) (enzyme)”, the stoichiometry N in data set [5] was 6 and 7.

With GGATTATTTACATTGGCAGATTCACC (ssDNA) [Cy5-ssDNA], the binding result in the data set with LcTwinkle R489A, in the data set with LcTwinkle H438A, with LcTwinkle R440A and with LcTwinkle S456A was “no binding” in each case.

On to TGGTCTTTTTTTTTTTTTTTTTTTTTTTTT (ssDNA) [TGGTC-oligo(dT) ssDNA], for which the binding result with LcTwinkle E325Q is listed as “binds”.
